# Data reported in the DeepSol protein solubility set.
# Experiment: soluble on expression in E. coli; label from the status in PepcDB or PDB records
row,Sequence,soluble on expression in E. coli
1,MPFAHKVVMRTALYWEPLEDGKVKCKLCPLNCIINPEKRGSCKVRINIDGKLYTLNYGKVSSIALDPIEKKPLFHFWPGSCAFSIGTVGCNMHCKHCQNWEISQADESFPYLQDATPESIVRLARHYECESIAYTYNEPTIWYEFVLDTAKLAKKEGLNNILVTNGYINEEPFRELAKYIDAMNIDIKAFNDKFYMKISSVPSGEPSRRTAVIAKKEFGIHVELTYLIIPTLNDNEEEIRRFARWVVEELGDDTPVHFSRFFPHYKLLNLPPTPIQTLEKAYKIAKEEGLKFVYLGNVPGHEGENTYCPRCGKLLIERWGFEILRYEIKDGKCKYCGEQIPIVGEYQRKTYRGMWW,not soluble
2,MPFKPLVTAGIEGLLNTFLYRSPALKSARTRLQGKVLCVKLKGFSMPLVLVFSERQVDVLGAWEGEADCTVITQASVLPKLRDRQQLATLIRSGELEVQGDIQVVQNFVALADLAEFDPAELLAPYTGDIAAESIGKVVRGGAKFLRHGFQRQQRYAAEAITEEWRMAPGPLEVAWFAEETAAVERAVDSLTTRLEKLEAK,not soluble
3,MPGHRITLTGEKQTLLITLYAKALDSRLDDSILHDRFAEEAVRQIDFDFSRVALGKGNERALAMRSHYFDQACREFLGRHPEGQVLNLGCGLDSRIYRVDPPAELPWFDLDYPEVMDLRERLYPPRAGAYRALRHSVDDDGWLQGVPRERPALVLAEGLMPYLRESQVRRLVERLVDHLGSGELLFDGYGRLGIMLLRLYPPLRETGAQVHWSIDDPRELERWHPALRFIEEVTDYDPQDVAKLPQSSRLMLPIYNGFAFLRRMGRLIRYRWPRV,not soluble
4,MPHFYEYLEFNRDEDREHQLDVYVGVQLEADTIAKITALETASEWLIMAEPYCPDCVEVVAYFQRISQLNPAINVKYVARKDNTQRHYFDSDRQQQAVIAVEKIPAIFNISSAETELVLAEFPAFLKAEMAEHPMQFDALKADFRMGKFGKRLEAELVEILTR,not soluble
5,MPIADTVTLNSGYEMPVIGYGTWQLPKNLAAERVRDALEAGYRHIDSALSFKNQEEVAAGIKDWCKIRKVRREELFLSSKIWNTYHSRNRCMQQIDEMLEIFETTYMDLIVIHWPFGWAEDEPPGERGLWPRGANGKMRYSDVDYLETWKALEDAHRSGKIRSIGLANFNIGQVEQVWTKGLIKPAVLQVEMNPFLDQEEIRQFCREKGIILTAFMLTGNPGSALYRKHEDPNLLYNETLQSIAKGHGKSVVQVLVRWAIDLRTTALVKSSESKRIRQNINIFKFRLTSQEIARIKALNIDFRILNPLLGNYDHPYFPWPHVQEEQLPQKVEEPDPENL,not soluble
6,MPIAQLLELWKKIEVEPMEIETTEEDLNLDVGPATEDTAEEGKSDSAACKTKVAGSVEEEGVVKEIDISHHVKEGFEKADPSQFELLKVLGQGSYGKVFLVRKVKGSDAGQLYAMKVLKKATLKVRDRVRSKMERDILAEVNHPFIVKLHYAFQTEGKLYLILDFLRGGDLFTRLSKEVMFTEEDVKFYLAELALALDHLHSLGIIYRDLKPENILLDEEGHIKITDFGLSKEAIDHDKRAYSFCGTIEYMAPEVVNRRGHTQSADWWSFGVLMFEMLTGSLPFQGKDRKETMALILKAKLGMPQFLSGEAQSLLRALFKRNPCNRLGAGIDGVEEIKRHPFFVTIDWNTLYRKEIKPPFKPAVGRPEDTFHFDPEFTARTPTDSPGVPPSANAHHLFRGFSFVASSLIQEPSQQDLHKVPVHPIVQQLHGNNIHFTDGYEIKEDIGVGSYSVCKRCVHKATDTEYAVKIIDKSKRDPSEEIEILLRYGQHPNIITLKDVYDDGKFVYLVMELMRGGELLDRILRQRYFSEREASDVLCTITKTMDYLHSQGVVHRDLKPSNILYRDESGSPESIRVCDFGFAKQLRAGNGLLMTPCYTANFVAPEVLKRQGYDAACDIWSLGILLYTMLAGFTPFANGPDDTPEEILARIGSGKYALSGGNWDSISDAAKDVVSKMLHVDPHQRLTAMQVLKHPWVVNREYLSPNQLSRQDVHLVKGAMAATYFALNRTPQAPRLEPVLSSNLAQRRGMKRLTSTRL,soluble
7,MPIATPEVYAEMLGQAKQNSYAFPAINCTSSETVNAAIKGFADAGSDGIIQFSTGGAEFGSGLGVKDMVTGAVALAEFTHVIAAKYPVNVALHTDHCPKDKLDSYVRPLLAISAQRVSKGGNPLFQSHMWDGSAVPIDENLAIAQELLKAAAAAKIILEIEIGVVGGEEDGVANEINEKLYTSPEDFEKTIEALGAGEHGKYLLAATFGNVHGVYKPGNVKLRPDILAQGQQVAAAKLGLPADAKPFDFVFHGGSGSLKSEIEEALRYGVVKMNVDTDTQYAFTRPIAGHMFTNYDGVLKVDGEVGVKKVYDPRSYLKKAEASMSQRVVQACNDLHCAGKSLTHHHHHH,soluble
8,MPILIRNIVLAPGEGDDVLGTRVAERFGVPERDIQSLHLVRKSIDARRKPRVIIVCTVQCRLLDEAGFLVRHGHDPDVKAVKEEPQPVFPRLAGGGRIVIVGMGPAGLFAALRLAEYGLAPTILERGRPVEERTRDVQAFWSLGQLDTESNVQFGEGGAGTFSDGKLTTRVNDSRIGYVLQKFVDFGASPEILHLAKPHVGTDQLRRVVAGIRQGLLAAGCDIRFRSRVTDIVSREGRVGTVIVNGTDEIAADALVLAPGHSARDTYEMLARRGVHLQAKPFAMGVRVEHPQELINGIQYGKGHHPALPPADYALAHNDRRTGRSAYSFCMCPGGVVVAGSSEEGGVVTNGMSAHLRNTPFANSALVVTVGPDDFGSSSPLAGVEFQRHWERRAFEAGGGGYRAPAQNLLSFLGMKGGKGVSSSYRPRVTETDLSRVLPAAVTGTLREALPTFDRRMRGFVTAEATLTGVETRTSAPVRIVRGEDCQSVSLQGLYPTGEGAGYAGGIMSAALDGIRVADIIAGKMTAETRSAILEHHHHHH,not soluble
9,MPIMSIISCKIMQDEIIWILENDSSIDETIIIDSENILEFVEKLDKVNLQYKVLSLEDISSLAEIRSECKNYTVMIHLMELGLHRSPKELKIKVYETIKTLAPFSSGILLFYGLCGNVLGDVEKDFERSSTSCPVRILKDKDHRIVDDCIGATVGGVNNYLRILKSVSDAGTYLFTPMYSKGWRELLDLNKLNKDPSKALKLMKKTHEMIGYKRVAKINTGLEYTENFDASIQEFAELFDFEILEFDDGNQKIFEDCYNELKAELLEHHHHHH,not soluble
10,MPINAAYRGPADLPEVIPVFPLAGALLLPRGQMPLNIFEPRYLAMIDDALRDGHRLIGMIQPDAAHSSETAEKPSLFNVGCVGRITQLAESGDGRYILELTGVSRFKVVDELQVLTPYRQCKVDYFPFGDDFTARKGEDEVDRETLLSVLTDFLKANNLKVDWDGVESAPNEALVNALAMMSPYGPPEKQALLEAPDLKTRAEILIAVTEMDLAKKRTSGDPPLQLEHHHHHH,not soluble
11,MPIVMARDLEETASSSEDEEVISQEDHPCIMWTGGCRRIPVLVFHADAILTKDNNIRVIGERYHLSYKIVRTDSRLVRSILTAHGFHEVHPSSTDYNLMWTGSHLKPFLLRTLSEAQKVNHFPRSYELTRKDRLYKNIIRMQHTHGFKAFHILPQTFLLPAEYAEFCNSYSKDRGPWIVKPVASSRGRGVYLINNPNQISLEDNILVSRYINNPLLIDDFKFDMRLYVLVTSYDPLVIYLYEEGLARKCNWKMGNTMDKRRLPIYVQVL,not soluble
12,MPIVRWGKTIKQELSEGWSRVIQHELTGKLDGHHGGFHETGDESMSDDLSDQARSTAVKQLKALGLSTYAARTFVALISLGEGTAQDVSEVADVPRTRVYDAADELRDRGLVDVKQSSPRRYWAISTETAGRHFEQEYDHRVTVLTNALDRLASANRSTEQQGVWTVTGRDTVTGRVVDFISSADDEVVYMTAEELLTDEIAESLSTASDRGVTIRLAEMSQSVEAQLERDVPDAQLFESAWEWSDTPAGRLLMIDQQKTLVSVLVGANGGYSLEPSDETAIWGTGQSNSLVVVLKALFAWQLANNRE,not soluble
13,MPKRRYNPSANEEEKIPIVEKLYRENQESDFLGGGFCDDDDEVQERREQISEMRQKREEAAHNLIQAPENCEKCDKGLMDSWLWERYNCAVCDACRDDKGEHKLLARTEVKNTYLLKDCDLDLRKPKLRYWAKKNPHNPRYGDMKLYLKCQIETRVLEVHGSWEDLELKKELREQSKEVRSEKRFEKKLKDLRQQIRGTSGVKVDFGRPHTHEFGKETHVEEDTWRRTCITCEYEEVFEKL,not soluble
14,MPLHQVVEPAFYIVVVLDLVSGRLNGHDKDTLGLAQQLANRNSGGGAVVAIAFGELKDDSLNKAGVDRLIHINDEQYDQYNPEQRCNDLQGIIGELDPQHILLPDSINGGGDLGRRLAAALQQRPACGVWKLNDDTVVCR,not soluble
15,MPLHVVEQPAFLVAVVPDMVGGRLSSHDKDLLGLARKLAGNDGAVLAVVFGEHKESAFDSAGVDRLLHLSGGEYDGYAPEQRILALRNLENQLAPRHWLFPDSRNGGGELGRRLAAALGERPAGRVWQVEDGRCIGRAGAGREDIQRALPRLLLAAAECAEPVSETRHEVRELHMAEQVARNLPRIEDLGPVAVDPA,not soluble
16,MPLPIAAPPILASTLTLLLATTPTAAALTPEQHAAALVAQMTRQEKIAQTMNAAPAIPRLGIPAYDWWSEGLHGIARNGYATVFPQAIGLAASWNTDLLQHVGTVTSTEARAKFNLTGGPGKDHPRYAGLTLWSPNINIFRDPRWGRGMETYGEDPYLTSQLAVSFIRGLQGDTPDHPRTIATPKHFAVHSGPEQGRHSFDVDVSAYDLEATYTPAFRAAIVDGHAGSVMCAYNALHGTPACASDWLLNTRLRNDWGFNGFVVSDCDAIEDMTRFHFFRQDNASASAAALKSGNDLNCGNTYRDLNQAIARGDIDESTLDQALIRLFTARQRLGTLQPREHDPYAAIGIK,not soluble
17,MPLRQKRLYWPLFFRDDLIMEKNKLQLEYVFDRVSTRSLWRYLSTPDGLSEWFAYDVRLEDNGDFYFQWDKNSGEKASVLEQREGERIRFQWHREQDQNACFEFVIHHSELTGGKSLEVIDYIAPEEVADMEHFWNNLISRLRLSLGAPE,not soluble
18,MPLSWPPEQFAFALEQMPLTENNRRILQAFLDAPEQTLTAHSLAAAANVAGGWSAANLRIGELSRKFAPVLGSLPDAGDGDPHWWRYIASGRWDGGRFYWTLRPQLKDALLTLGWQSSESLDNEAEGVSAEEARTFVEGATRQIFVNAYERNAGARAACIAHFGTVCRVCETDLVAIYGEVARGYIQVHHLRSLAEVGRQYEVNPLTDLIPVCPNCHAMLHQRRPAYTPEELRAMLGRGQHLEHHHHHH,not soluble
19,MPLTGEYEPSPSKWAADQAELMESTDGAKGTTLGGRPVVLLTTRGAKSGKIRKTPLMRVEHDGTYAIVASLGGAPKNPVWYYNVKAEPHVELRDGSATQDMVAREVTGDERATWWDRAVAAFPDYAEYQKKTDREIPVFVLEPA,not soluble
20,MPNFFKFHTVIERHWQKPYPVLSFLLKPLSGLFAKIAAKWRADFLSGKRQSEKLSVPVVVVGNIHAGGTGKTPIAAALVSGLQEKGVKVGIISRGYGRKSKAVYVLNAASRAEDAGDEPLLLFRKTGAPTAVGSSRVEAGRALLAAHPELELIVADDGLQHYALQRDVEIAVFPAADTGRTDLDLLPNGNLREPLSRLESVDAVVVGGRAADGFMPSEHLFGSRIEAGAVYRLNRPSEKLDISTLSGKRVAAVAGIARPQRFFDTLTHMGIRLDQTVALPDHADIFNRDLPPADVVLVTEKDAVKFSDGICTDNVWVLPVCAIIEPDLAEFVLERLEGVPKAVLEHHHHHH,not soluble
